Measured values published in patent US20050014931A1 (ABGENIX, published 2005).

Target: T1, Tetanus toxoid (UniProt P04958 2-1315)
T1 construct: also called TT
Test: ELISA screen of hybridoma supernatants

T1 sequence (P04958 2-457 limits assumed, chain 1 of 2): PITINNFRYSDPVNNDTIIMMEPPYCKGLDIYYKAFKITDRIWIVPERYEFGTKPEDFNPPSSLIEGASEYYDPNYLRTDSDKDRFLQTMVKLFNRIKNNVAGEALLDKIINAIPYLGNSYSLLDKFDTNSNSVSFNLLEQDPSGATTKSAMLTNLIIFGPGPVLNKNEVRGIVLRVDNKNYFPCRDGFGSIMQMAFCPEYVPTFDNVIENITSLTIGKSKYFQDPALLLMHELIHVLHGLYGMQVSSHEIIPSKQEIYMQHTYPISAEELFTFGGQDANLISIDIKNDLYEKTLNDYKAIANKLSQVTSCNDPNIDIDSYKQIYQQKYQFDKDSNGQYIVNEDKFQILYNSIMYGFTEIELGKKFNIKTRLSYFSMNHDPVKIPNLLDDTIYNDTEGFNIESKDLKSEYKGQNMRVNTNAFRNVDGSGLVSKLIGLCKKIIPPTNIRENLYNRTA
T1 sequence (P04958 458-1315 limits assumed, chain 2 of 2): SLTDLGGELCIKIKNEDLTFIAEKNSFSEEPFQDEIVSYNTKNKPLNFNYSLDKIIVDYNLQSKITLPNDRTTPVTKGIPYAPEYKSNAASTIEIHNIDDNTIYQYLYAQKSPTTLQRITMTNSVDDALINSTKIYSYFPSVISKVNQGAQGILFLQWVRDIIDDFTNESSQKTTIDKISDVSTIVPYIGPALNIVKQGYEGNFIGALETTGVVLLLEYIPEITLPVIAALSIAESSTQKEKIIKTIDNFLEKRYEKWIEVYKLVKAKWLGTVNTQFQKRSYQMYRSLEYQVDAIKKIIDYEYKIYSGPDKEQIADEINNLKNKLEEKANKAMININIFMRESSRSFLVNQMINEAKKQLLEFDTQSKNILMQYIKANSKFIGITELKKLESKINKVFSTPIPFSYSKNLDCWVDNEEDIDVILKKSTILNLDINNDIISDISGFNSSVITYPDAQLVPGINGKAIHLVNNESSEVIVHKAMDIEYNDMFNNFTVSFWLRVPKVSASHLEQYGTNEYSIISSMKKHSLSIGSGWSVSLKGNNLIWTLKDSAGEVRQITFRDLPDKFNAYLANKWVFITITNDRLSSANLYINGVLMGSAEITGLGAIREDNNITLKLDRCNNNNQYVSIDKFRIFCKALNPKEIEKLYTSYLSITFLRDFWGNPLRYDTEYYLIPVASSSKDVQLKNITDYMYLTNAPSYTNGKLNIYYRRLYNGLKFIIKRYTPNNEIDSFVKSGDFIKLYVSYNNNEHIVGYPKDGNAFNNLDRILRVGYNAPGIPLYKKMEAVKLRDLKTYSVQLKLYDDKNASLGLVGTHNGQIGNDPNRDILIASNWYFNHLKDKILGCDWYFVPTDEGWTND

| Binder | binding result |
| --- | --- |
| Mab 1A2 (antibody, V domains shown) VH: not shown VL: DIELTQSPDFQSVTPKEKVTITCRASQSIGSSLHWYQQKPDQSPKLLIKYASQSFSGVPSRFSGSGSGTDFTLTINSLEAEDAATYYCHQSSSLPRTFGQGTKVEIKR | no binding |
| Mab 1F10/7C5 (antibody, V domains shown, also called Mab 7C5) VH: not shown VL: DIELTQSPLSLPVTLGQPASISCRSSQSLVYSDGNTYLNWFQQRPGQSPRRLIYKVSNWDSGVPDRFSGSGSGTDFTLKISRVEAEDVGVYYCMQGTHWPRTFGQGTKVEIKR | no binding |
